The supplement of paper PMC9732359
± gives the uncertainty stated by the source.

Test: protein stability index of a GFP-peptide fusion (yeast GPS) (PSI 1-4); higher = more stable; sorted into four equal gates, so the index is relative within each strain
Procedure, shortened: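 Plasmids isolated from each sorting gate were PCR-amplified and Illumina-sequenced, and barcodes assigned the reads to strains. The gates, four of equal size, were set by GFP/Cherry fluorescence ratio on mid-log cultures in leucine-free medium. These cultures were yeast carrying a pooled library of tiled 17-residue yeast protein peptides fused downstream of GFP on a plasmid that also expresses Cherry. The protein stability index is the sum of every gate's read frequency times its gate number.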

Sequence	protein stability index (doa10∆)	protein stability index (pdr5∆)	protein stability index (san1∆)	protein stability index (ubr1∆)
LLCALDRKDQDDRDHFG [RPB2]	3.22 ± 0.096	3.28 ± 0.067	2.71 ± 0.1	3.47 ± 0.05
RNIILEARFDVLITSYE [ISW2]	2.85 ± 0.11	2.22 ± 0.076	2.41 ± 0.088	2.61 ± 0.074
VTVDADIDDILKKGEQK [ISW2]	2.85 ± 0.12	2.76 ± 0.07	2.35 ± 0.084	2.72 ± 0.043
APKWYPSEDVAAPKKTR [RPL6B]	2.13 ± 0.093	2.09 ± 0.065	1.87 ± 0.092	1.98 ± 0.1
TTTTANINEVKKASDLV [NUT1]	3.01 ± 0.06	3.07 ± 0.067	2.84 ± 0.067	2.62 ± 0.074
KKSKKKWSKKSMKDRAQ [RPS25A]	3.46 ± 0.069	3.37 ± 0.1	3.36 ± 0.087	3.6 ± 0.051
QIQLAESELSLLEETQA [SMC4]	2.69 ± 0.066	3.25 ± 0.063	2.71 ± 0.095	3.05 ± 0.052
SQTTLVQFGLNEETFTV [ARP9]	2.85 ± 0.086	2.92 ± 0.072	2.77 ± 0.069	2.64 ± 0.059
NFKGLAKEKERMLEEAI [YIL149C/MLP2]	3.4 ± 0.095	3.56 ± 0.09	3.48 ± 0.071	3.38 ± 0.083
VDVQAPTDDKTLKPTFS [YOR098C/NUP1]	3.05 ± 0.15	3.23 ± 0.18	3.16 ± 0.19	3.27 ± 0.076
DNEEASVKLDLQDDEDH [BRN1]	2.99 ± 0.1	3.45 ± 0.084	3.05 ± 0.071	3.35 ± 0.097
LPLFYDLLNAASIESAD [IRR1]	2.08 ± 0.047	2.17 ± 0.056	2.27 ± 0.047	2.78 ± 0.048
YTEFIDSFIEKIIPKDI [ITC1]	2.79 ± 0.12	2.11 ± 0.1	1.76 ± 0.12	1.81 ± 0.053
IDKNHGFERLTVNEPQM [SRB7]	3.03 ± 0.094	3.25 ± 0.075	3.23 ± 0.14	3.02 ± 0.052
QVLNRYTYSSTLSHLRR [RPB2]	2.88 ± 0.043	2.83 ± 0.041	2.77 ± 0.041	2.81 ± 0.03
KPSSPPDVKSLVQLSTM [SIR4]	3.41 ± 0.11	3.26 ± 0.07	3.12 ± 0.088	3.26 ± 0.06
SEILSFDPVYTTVITVF [YML103C/NUP188]	2.08 ± 0.059	2.27 ± 0.051	1.6 ± 0.11	1.62 ± 0.048
RPKCGDCGSALQGISTL [RPL34A]	1.34 ± 0.08	1.42 ± 0.067	1.32 ± 0.1	1.41 ± 0.052
KKSVLKQVQDFEENDHP [COR1]	2.85 ± 0.084	2.81 ± 0.15	2.81 ± 0.098	2.66 ± 0.067
QDSTSENVKIINYLLTL [RPN2]	3.42 ± 0.074	3.1 ± 0.079	3.16 ± 0.071	2.9 ± 0.12
TWSLILNECLKTIQINN [YML031W/NDC1]	1.88 ± 0.057	1.62 ± 0.058	1.3 ± 0.1	1.86 ± 0.042
PMEVMGLMLGEFVDDYT [RPN11]	3.29 ± 0.12	3.28 ± 0.095	3.12 ± 0.14	3.08 ± 0.074
KIIPKDISATQLPKQLW [ITC1]	2.22 ± 0.11	2.43 ± 0.14	2.45 ± 0.12	2.32 ± 0.13
SGVPRLKEILNVAKNMK [RPO21]	1.23 ± 0.12	1.83 ± 0.12	1.32 ± 0.26	1.4 ± 0.082
NIVNDFTPEEEAAIRRE [SKP1]	2.28 ± 0.14	2.73 ± 0.079	3.08 ± 0.13	3.02 ± 0.086
KYFTELSHYIRQCFQDN [MED1]	2.38 ± 0.053	2.35 ± 0.06	1.92 ± 0.089	2.5 ± 0.038
